Measured values: patent US7892803B2, “Gene and uses therefor to modify pasture qualities of crops” (Commonwealth Scientific and Industrial Research Organisation, priority 2001, dated 2011)

Key:
[1] = LAR enzyme activity of recombinant LAR protein in E. coli extracts (radio-HPLC); format: biochemical; settings: bacterial protein extracts after induction, HPLC system IIa
Procedure: LAR was assayed essentially as described by Tanner and Kristiansen (1993). The standard assay contained in total volume of 100 μl assay buffer containing 10 mg glycerol, 10 μmol NaPi, 0.5 μmol NADPH, 0.1 μmol DDT, all adjusted to pH7 with NaOH, 0.25 nmol [^3H]-3,4-cis-leucocyanidin (1 μCi), or other suitable flavan-3,4-diol substrate (Table 2), and enzyme extract. The assay was initiated by the addition of an appropriate amount of enzyme extract and incubated at 30° C. for 30 min. The incubation was terminated by extraction with 0.2 ml ethyl acetate containing 10 nmol of unlabelled catechin as carrier. The ethyl acetate extracts were dried under a stream of nitrogen at room temperature. The residue was dissolved in 100 μl of water and analyzed by radio-HPLC using system II (see above and Table 2). In each radio-chromatogram of the assay mixtures derived from the leaf extracts referred to herein, only the substrate, 3-4-cis-leucocyanidin, or the product, catechin were detected.
The complete amino acid coding sequence of the LAR cDNA was introduced into the BamHI site of the pET3a expression vector to express the LAR382 polypeptide containing the 14 amino acid N-terminal T7 Tag. The resultant expression construct was then introduced into E. coli strain Rosetta(DE3) RARE/pLysS.
A truncated form of LAR comprising amino acids 1-317 was also introduced into the BamHI and HindIII sites of pQE30 expression vector to express the LAR317 polypeptide containing the 10 amino acid N-terminal RGS-6×His epitope. The resultant expression construct was then introduced into E. coli strain XL1 Blue.
Expression of the full length recombinant LAR382 protein, or the truncated form LAR317, was induced as described in the preceding Example. Bacterial protein extracts were assayed for LAR enzyme activity, essentially as described in Example 1.

[2] = Storage stability of partially purified LAR enzyme preparation; format: physicochemical; settings: 2,360 fold purified concentrate mixed with equal volume of glycerol, stored at −20 C
Procedure: Fractions with LAR activity were combined and then concentrated to a final volume of 1 ml by applying nitrogen over a YM10 membrane (Amicon). The concentrate was mixed with an equal volume of glycerol and stored at −20 C.
The final yield of enzyme activity was 8.7% and purification was 2,360 fold.

Molecule	LAR enzyme activity (reduction of leucocyanidin to catechin) [1]	LAR enzyme activity (reduction of leucocyanidin to catechin) ([1]; listed as pET LAR317)	LAR enzyme activity (reduction of leucocyanidin to catechin) ([1]; listed as pET LAR382)	stability of LAR enzyme activity on storage [2]
LAR317: Truncated recombinant LAR, amino acids 1-317 of SEQ ID NO: 29, with N-terminal RGS-6×His epitope, expressed in E. coli (protein, listed as Desmodium uncinatum, N-terminal RGS-6xHis tag) MTVSGAIPSMTKNRTLVVGGTGFIGQFITKASLGFGYPTFLLVRPGPVSPSKAVIIKTFQDKGAKVIYGVINDKECMEKILKEYEIDVVISLVGGARLLDQLTLLEAIKSVKTIKRFLPSEFGHDVDRTDPVEPGLTMYKEKRLVRRAVEEYGIPFTNICCNSIASWPYYDNCHPSQVPPPMDQFQIYGDGNTKAYFIDGNDIGKFTMKTIDDIRTLNKNVHFRPSSNCYSINELASLWEKKIGRTLPRFTVTADKLLAHAAENIIPESIVSSFTHDIFINGCQVNFSIDEHSDVEIDTLYPDEKFRSLDDCYEDFV	catalysed the reduction of [4-^3H]-2,3-trans-3,4-cis-leucocyanidin	LAR activity sufficient to convert all of the leucocyanidin substrate into catechin		
LAR382: Full length recombinant D. uncinatum LAR polypeptide (SEQ ID NO: 29) with N-terminal T7 Tag, expressed in E. coli from pET3a (protein, listed as Desmodium uncinatum, N-terminal T7 tag) MTVSGAIPSMTKNRTLVVGGTGFIGQFITKASLGFGYPTFLLVRPGPVSPSKAVIIKTFQDKGAKVIYGVINDKECMEKILKEYEIDVVISLVGGARLLDQLTLLEAIKSVKTIKRFLPSEFGHDVDRTDPVEPGLTMYKEKRLVRRAVEEYGIPFTNICCNSIASWPYYDNCHPSQVPPPMDQFQIYGDGNTKAYFIDGNDIGKFTMKTIDDIRTLNKNVHFRPSSNCYSINELASLWEKKIGRTLPRFTVTADKLLAHAAENIIPESIVSSFTHDIFINGCQVNFSIDEHSDVEIDTLYPDEKFRSLDDCYEDFVPMVHDKIHAGKSGEIKIKDGKPLVQTGTIEEINKDIKTLVETQPNEEIKKDMKALVEAVPISAMG	catalysed the reduction of [4-^3H]-2,3-trans-3,4-cis-leucocyanidin		LAR activity sufficient to convert all of the leucocyanidin substrate into catechin	
LAR: Leucoanthocyanidin reductase enzyme partially purified 2,360 fold from young leaves of Desmodium uncinatum (protein, listed as Desmodium uncinatum) MTVSGAIPSMTKNRTLVVGGTGFIGQFITKASLGFGYPTFLLVRPGPVSPSKAVIIKTFQDKGAKVIYGVINDKECMEKILKEYEIDVVISLVGGARLLDQLTLLEAIKSVKTIKRFLPSEFGHDVDRTDPVEPGLTMYKEKRLVRRAVEEYGIPFTNICCNSIASWPYYDNCHPSQVPPPMDQFQIYGDGNTKAYFIDGNDIGKFTMKTIDDIRTLNKNVHFRPSSNCYSINELASLWEKKIGRTLPRFTVTADKLLAHAAENIIPESIVSSFTHDIFINGCQVNFSIDEHSDVEIDTLYPDEKFRSLDDCYEDFVPMVHDKIHAGKSGEIKIKDGKPLVQTGTIEEINKDIKTLVETQPNEEIKKDMKALVEAVPISAMG				stable for up to one year
